Key:
[1] = system: CAP70TAG azobenzyl-Phe mutant, trans (before irradiation) I70(azobenzyl-Phe) (Escherichia coli); assay: EMSA; details: 20 uM cAMP, 25 C; approximate value; 4-fold lower than wt; same value recovered after switching back with light >=420 nm
[2] = system: CAP70TAG azobenzyl-Phe mutant, irradiated at 334 nm (about 50% cis) I70(azobenzyl-Phe) (Escherichia coli); assay: EMSA; details: 20 uM cAMP, 25 C; after 334 nm irradiation 40 min at 0 C, photostationary state about 50% cis
[3] = system: CAP (catabolite activator protein) wild-type (Escherichia coli); assay: EMSA; details: 20 uM cAMP, 10 mM Tris pH 7.5, 50 mM NaCl, 1 mM MgCl2, 25 C; approximate value
[4] = biological target: E. coli leucyl-tRNA synthetase (ecLRS) wild-type (Escherichia coli, UniProt P07813 SEQ:1-860); assay: cell_activity; amber suppression of GAL4 (2 TAG) in S. cerevisiae, beta-galactosidase; printed as 104-fold increase (10^4) over either component alone
Excerpt: The orthogonality of the E. coli leucyl suppressor tRNACUA (Leu5CUA) (FIG. 1A), which has U35 and A37 in the anticodon loop, and the corresponding ecLRS was examined in vivo in a selection strain of S. cerevisiae [MaV203:pGADGAL4(2 TAG)]. See Chin, et al., Science, 2003, 301:964-7. This strain harbors the transcriptional activator GAL4 with amber codons at two permissive sites (Thr44 and Arg110). Efficient suppression at both sites leads to expression of three reporter genes: lacZ, his3, and ura3. In the presence of either Leu5CUA or ecLRS alone, no significant β-galactosidase activity was detected above the residual activity in lysates from […] cells. […] See ibid.

Chain of E. coli leucyl-tRNA synthetase (ecLRS) wild-type (P07813 whole entry, the tested form may be a part): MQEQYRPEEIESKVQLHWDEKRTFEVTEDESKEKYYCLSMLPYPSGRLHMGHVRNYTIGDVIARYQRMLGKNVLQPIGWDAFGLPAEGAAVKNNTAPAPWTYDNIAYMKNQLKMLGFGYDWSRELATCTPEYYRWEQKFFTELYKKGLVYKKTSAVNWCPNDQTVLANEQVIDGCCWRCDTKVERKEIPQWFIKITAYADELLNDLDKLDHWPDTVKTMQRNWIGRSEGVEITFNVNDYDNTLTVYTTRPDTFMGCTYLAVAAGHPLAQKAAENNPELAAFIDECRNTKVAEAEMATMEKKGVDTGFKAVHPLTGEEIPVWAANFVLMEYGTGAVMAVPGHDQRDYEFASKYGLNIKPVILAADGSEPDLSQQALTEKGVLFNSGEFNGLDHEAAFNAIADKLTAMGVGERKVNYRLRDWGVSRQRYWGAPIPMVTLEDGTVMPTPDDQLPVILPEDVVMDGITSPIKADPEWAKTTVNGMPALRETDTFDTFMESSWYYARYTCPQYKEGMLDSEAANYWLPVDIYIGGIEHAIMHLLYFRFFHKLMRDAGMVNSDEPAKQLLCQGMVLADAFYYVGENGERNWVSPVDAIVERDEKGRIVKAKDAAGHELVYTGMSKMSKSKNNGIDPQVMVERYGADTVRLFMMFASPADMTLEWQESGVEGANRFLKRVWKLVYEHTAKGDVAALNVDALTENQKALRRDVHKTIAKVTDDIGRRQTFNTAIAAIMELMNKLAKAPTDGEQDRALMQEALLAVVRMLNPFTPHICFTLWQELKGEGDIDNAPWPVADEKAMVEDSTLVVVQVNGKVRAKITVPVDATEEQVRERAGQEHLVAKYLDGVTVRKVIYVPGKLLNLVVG

Row | Molecule | Ka [1] [M⁻¹] | Ka [2] [M⁻¹] | Ka [3] [M⁻¹] | activity [4] [fold]
1 | 118 bp lac promoter fragment with primary CAP site | 4e+06 | 1e+06 | 1.6e+07 | –
2 | Leu5CUA amber suppressor tRNA (ssRNA) RNA: GCCCGGAUGGUGGAAUCGGUAGACACAAGGGAUUCUAAAUCCCUCGGCGUUCGCGCUGUGCGGGUUCAAGUCCCGCUCCGGGUACCA | – | – | – | > 10000

Reference: patent US20060134746, “Adding photoregulated amino acids to the genetic code” (The Scripps Research Institute, published 2006)
